This is an account of results in patent US20260043816A1 (AC IMMUNE, published 2026).

For experiment [1], the target named is T1, recombinant full length TDP-43 (SEQ ID NO: 1, FL TDP-43) (human, UniProt Q13148 1-414).
T1 construct: also called recombinant human soluble FL TDP-43; soluble human TDP-43
The experiment is described as follows: pairing sandwich ELISA, antibody coated as capture, FL TDP-43 titrated. As for the experimental part: (§1) The capacity of antibodies to bind phospho TDP-43 and TDP-43 was determined using a sandwich enzyme-linked immunosorbent assay (ELISA), where each antibody was paired with a second TDP-43 antibody previously characterized for TDP-43 binding and performance in sandwich immunoassays, ACI-7071-809F12-Ab1-rec2 (as described in WO2020234473) or ACI-7069-636E5-Ab1 (as described in WO2020234473). ELISA plates (Nunc™ Edge™ 96-Well, Non-Treated, Flat-Bottom Microplate, ThermoFisher Scientific, Denmark) were coated with 5 μg/mL of anti-phospho TDP-43 or anti-TDP-43 antibodies in carbo/bicarbonate buffer, overnight at 4° C. Plates were then washed with 0.05% Tween-20/PBS and blocked with 1% bovine serum albumin (BSA) in 0.05% Tween-20/PBS for 1 hour at 37° C. The plates were then washed again as described above.
Serial-dilutions of target peptide or protein were then added to the plates. For assays with anti-phospho TDP-43 antibodies, one of four peptide conjugates (peptides 11, 23, 28, or 29) each composed of two TDP-43 sequences, one phosphorylated and one non-phosphorylated, conjugated together with a Trioxatridecan-succinamic acid linker (Ttds, binding regions and sequences shown in Table 4) were used. Peptides 11, 23, 28, and 29 were added in a 10-fold serial dilution starting at 0.5 μM. For assays with TDP-43 antibodies only, recombinant full length TDP-43 (SEQ ID NO: 1, FL TDP-43) was diluted 3-fold from 21.9 pM. Plates were incubated for 1 hour at 37° C., and then washed. […] PEG-biotinylated phospho TDP-43 or TDP-43 antibodies were then respectively added to the wells and incubated for 1 hour at 37° C., after which the plates were washed. Horseradish peroxidase (HRP)-conjugated streptavidin (R&D Systems, Switzerland) was added at 1/200 dilution in 1% BSA and 0.05% Tween-20/PBS for 45 min at room temperature. […] The plate was read at 450 nm using an ELISA plate reader (Tecan, Switzerland).
Background: ELISA stands for enzyme-linked immunosorbent assay.

Experiment [2] has as its target T1, recombinant full length TDP-43 (SEQ ID …). The experiment is described as follows: pairing sandwich ELISA, biotinylated antibody as detector, FL TDP-43 titrated. As for the experimental part:
as §1
Serial-dilutions of target peptide or protein were then added to the plates. For assays with anti-phospho TDP-43 antibodies, one of four peptide conjugates (peptides 11, 23, 28, or 29) each composed of two TDP-43 sequences, one phosphorylated and one non-phosphorylated, conjugated together with a Trioxatridecan-succinamic acid linker (Ttds, binding regions and sequences shown in Table 4) were used. Peptides 11, 23, 28, and 29 were added in a 10-fold serial dilution starting at 0.5 μM. […] The plate was read at 450 nm using an ELISA plate reader (Tecan, Switzerland).

The target in experiment [3] is T2, biotinylated TDP-43 phospho peptide 396-409 (pS403 and pS404) (human, phosphoserine at 403 and 404 (SEQ ID NO: 1 numbering); biotin on the N-terminus).
T2 peptide: GFNGGFGSSMDSKS
Kind of experiment: capture ELISA, antibody on anti-mouse IgG, biotinylated peptide. As for the experimental part:
(§2) Briefly, for capture detection in ELISA, wells of 96-well plates were coated with 5 μg/mL goat anti-mouse IgG (Fc gamma fragment specific), in carbonate buffer, overnight at 4° C. Plates were then washed with 0.05% Tween-20/PBS and blocked with 1% bovine serum albumin (BSA) in 0.05% Tween-20/PBS for 1 hour at 37° C. Phospho TDP-43 antibodies were then added at 5 μg/mL and incubated for 2 hours at 37° C. after which the plates were washed as described above. Biotinylated peptides representing each of the phospho sites, or non-phosphorylated, were incubated at 0.5 mM in 0.1% BSA and PBS for 1 hour at 37° C. after which the plates were washed. A streptavidin-HRP-conjugate (R&D Systems, Minnesota, United States) was added at 1/200 dilution in 0.05% Tween-20/1% BSA in PBS for 45 minutes in the dark at ambient temperature. After the final wash, plates were incubated with TMB (Sigma-Aldrich, Switzerland), an HRP substrate solution, and read at 405 nm using an ELISA plate reader (Tecan, Switzerland).

Experiment [4] deals with T3, biotinylated TDP-43 phospho peptide 396-409 (pS403) (human, phosphoserine at 403 (SEQ ID NO: 1 numbering); biotin on the N-terminus).
T3 peptide: GFNGGFGSSMDSKS
Described as above. As for the experimental part:
as §2

Experiment [5] has as its target T4, biotinylated TDP-43 phospho peptide 396-409 (pS404) (human).
T4 peptide: Biotin-GFNGGFGS[pS]MDSKS
The experiment is described as above. As to the method:
as §2

Experiment [6] addresses T5, biotinylated TDP-43 phospho peptide 401-413 (pS409 and pS410) (human).
T5 peptide: Biotin-FGSSMDSK[pS][pS]GWG
The description is as above. As for the experimental part: as §2

The target of experiment [7] is T6, biotinylated TDP-43 phospho peptide 401-413 (pS409) (human).
T6 peptide: Biotin-FGSSMDSK[pS]SGWG
The experiment is described as above. As for the experimental part:
as §2

In experiment [8] the target is T7, biotinylated TDP-43 phospho peptide 401-413 (pS410) (human).
T7 peptide: Biotin-FGSSMDSKS[pS]GWG
The description is as above. As for the experimental part: as §2

Experiment [9] has as its target T8, biotinylated non-phosphorylated TDP-43 peptide 366-414 (human, biotin on the N-terminus).
T8 peptide: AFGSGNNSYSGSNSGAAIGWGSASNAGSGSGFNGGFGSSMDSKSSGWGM
The description is as above. As to the method: as §2

The target of experiment [10] is T1, recombinant full length TDP-43 (SEQ ID …). The experiment is described as follows: SPR Biacore T200, FL TDP-43 immobilized, antibody analyte (avidity), 1:1 fit. As to the method: Binding avidity of ACI-7071-4665-B5-R3B-Ab2 to soluble FL TDP-43 was evaluated by determining the KD value using SPR (Biacore T200, GE Healthcare Life Sciences). Recombinant human soluble FL TDP-43 was immobilized on a CM5 Series S sensor chip (GE Healthcare Life Sciences) by amine coupling. Soluble TDP-43 was immobilized at a concentration of 5 μg/ml in 10 mM sodium acetate (pH 4.5) with a flow rate of 5 μl/min for 420 seconds resulting in an immobilization level of 150 RU. […] Antibodies were injected at a flow rate of […] for 90 seconds contact time and 700 seconds dissociation phase followed by three regenerations with 10 mM glycine-HCl (pH 1.7). For the optimized SPR protocol the antibodies were diluted 3-fold starting from 300 nM and dilute down to 1.2 nM and injected for 300 seconds at 30 μL/min followed by 600 seconds of dissociation. The chip surface was regenerated by one injection with 10 mM glycine-HCl (pH 1.7). Results obtained from binding kinetics were double referenced using a blank flow cell and a buffer cycle, and were evaluated with a global 1:1 fitting model with RI.
(Surface plasmon resonance follows binding to a sensor surface in real time, without labels.)

Square brackets hold non-standard residues; d marks the D form. Ends that are not written are not given here. * marks the point of attachment. Biotin = O=C1N[C@H]2[C@H](CS[C@H]2CCCCC(=O)*)N1; pS = N[C@@H](COP(=O)(O)O)C(=O)O

B1: ACI-7069-636E5-Ab1 (as described in WO2020234473) (antibody, V domains shown)
VH: EVHLVESGGDLVMPGGSLKLSCAASGFTFSNYGMSWVRQTPDKRLEWVATISSGGKYINYLDSLKGRFTISRDNAKNTLYLQMSSLKSEDTAMYYCAKDYGSGWAWFAYWGQGTLVTVSA
VL: QLVLTQSSSASFSLGASAKLTCTLSSQHSTYTIEWYQQQPLKPPKYVMELKKDGSHSTGDGIPDRFSGSSSGADRYLSISNIQPEDEAIYICGVGDTIKEQFVYVFGGGTKVTVL
notes: also called 636E5B8
As for B1, the EC50 – broadly, the concentration giving half of the maximal effect – in experiment [1] is 1.16 nM; in experiment [2], 0.07 nM.

B2: ACI-7071-4665-B5-R3B-Ab2 (antibody, mouse IgG2a, V domains shown)
VH: QVQLKQSGPELVKPGASVKLSCKASGYTFTTYDINWVKQRPGQGPEWIGWIYPRVGNTKYNEKFKDKATLTVDTSSSTAYMELHSLTSEDSAVYFCASALTYWGQGTLVTVSA
VL: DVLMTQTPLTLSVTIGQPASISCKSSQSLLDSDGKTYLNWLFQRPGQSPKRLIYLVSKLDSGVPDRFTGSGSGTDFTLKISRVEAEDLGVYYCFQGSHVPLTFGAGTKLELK
notes: also called 4665-B5-R3B-B8; ACI-7071-4665-B5-Ab2
As for B2, the binding result in [3], in experiment [4], in experiment [5], in experiment [6], in [7] and in experiment [8] was “no binding (tested: peptide at 0.5 mM)” throughout. In [9], the binding result is on record as “binds”. Moreover, the EC50 came out at 0.072 nM in [1] and 0.181 nM in [2]. In experiment [10], the Kd is 0.39 nM. Further, the koff (in general, the first-order rate constant of dissociation) in experiment [10] came out at 1.66e-05 s⁻¹. Also, the kon (usually the second-order rate constant of association) in experiment [10] came out at 42900 M⁻¹ s⁻¹.

B3: ACI-8070-942.30D12-Ab1 (antibody, V domains shown)
VH: DVQLVESGGGLVQPGGSRKLSCEASGFTFSSIGMHWVRQAPEKGLEWVAYITSGSSTIYYADTVKGRFTISRDNPKNTLFLQMTSLRSEDTAIYYCAGSGPGTDYWGQGTTLTVSS
VL: DIKMTQSPSSMYASLGERVTITCKASQDINSYLSWFQQKPGKSPKTLIYRANRLVDGVPSRFSGSGSGQDYSLTISSLEYEDMGIYYCLQYDEFPLTFGAGTKLELK
notes: Mouse hybridoma antibody; also called 942.30D12F9; pS375/pS379 TDP-43 antibody
With B3, the binding result in [3], in [4], in experiment [5], in experiment [6], in experiment [7] and in experiment [8] was “no binding (tested: peptide at 0.5 mM)” throughout. For the same molecule, the binding result in experiment [9] is “no binding (tested: peptide at 0.5 mM)”.
